The values that follow come from PMC2275136.

The target in the series is p53 (purified recombinant) (UniProt P04637 1-393). Put plainly: EMSA. In general terms: In EMSA bound probe runs differently from free probe, usually more slowly.
p53 (purified recombinant), sequence (P04637 whole entry): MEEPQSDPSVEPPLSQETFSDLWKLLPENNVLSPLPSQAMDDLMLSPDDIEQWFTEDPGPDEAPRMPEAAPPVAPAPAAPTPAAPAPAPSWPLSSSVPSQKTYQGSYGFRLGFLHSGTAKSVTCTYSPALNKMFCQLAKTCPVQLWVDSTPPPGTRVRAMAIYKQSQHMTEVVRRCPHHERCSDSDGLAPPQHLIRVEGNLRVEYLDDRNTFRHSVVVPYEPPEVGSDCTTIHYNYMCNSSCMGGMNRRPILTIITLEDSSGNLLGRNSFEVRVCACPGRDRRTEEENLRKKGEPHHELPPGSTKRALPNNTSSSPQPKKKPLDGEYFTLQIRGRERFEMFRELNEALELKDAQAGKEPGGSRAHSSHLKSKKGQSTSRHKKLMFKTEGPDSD

B1: p21 promoter p53 consensus duplex (dsDNA)
DNA 1: TTGAACATGTCCCAACATGTTGA
DNA 2: TCAACATGTTGGGACATGTTCAA
With B1, the binding result is recorded as “binds”.
